Measurements from publication doi:10.1101/557132.

What was measured:
[1] = molecular target: human SNAP_GLP1R on CHO-K1 cells (human) (UniProt P43220)
[2] = molecular target: SNAP_GLP1R on YFP-AD293 cells (human) (UniProt P43220)
[3] = molecular target: SNAP_GLP1R on YFP-AD293 cells (human) (UniProt P43220); assay: fluorescent ligand labelling of cells

Sequence of SNAP_GLP1R on YFP-AD293 cells (human) (P43220 24-463): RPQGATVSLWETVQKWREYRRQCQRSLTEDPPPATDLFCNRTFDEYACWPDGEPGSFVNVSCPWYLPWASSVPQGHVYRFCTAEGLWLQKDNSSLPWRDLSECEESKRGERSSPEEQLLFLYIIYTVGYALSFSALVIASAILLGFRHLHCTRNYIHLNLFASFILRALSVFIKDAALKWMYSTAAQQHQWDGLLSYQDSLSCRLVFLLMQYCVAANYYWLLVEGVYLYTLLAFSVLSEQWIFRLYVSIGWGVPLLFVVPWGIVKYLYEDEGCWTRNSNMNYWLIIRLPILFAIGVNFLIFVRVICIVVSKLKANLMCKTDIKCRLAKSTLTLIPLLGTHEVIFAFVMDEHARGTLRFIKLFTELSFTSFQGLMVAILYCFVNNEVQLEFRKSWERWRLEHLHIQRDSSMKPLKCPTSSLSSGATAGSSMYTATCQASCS
Sequence of human SNAP_GLP1R on CHO-K1 cells (human) (P43220 24-463): as above

Row | Substance | block of GLP-1-induced cAMP production through GLP1R (cAMP-Glo) [1] | cAMP production (cAMP-Glo) [2] | cAMP production (cAMP-Glo) with the positive allosteric modulator BETP [2] | cAMP production (cAMP-Glo) with the positive allosteric modulator BETP [1] | concentration at maximum labeling [3]
1 | Exendin4(9-39) (peptide) | 38.4 nM |  |  |  | 
2 | LUXendin555 (peptide) |  | 130 nM | 28.4 nM |  | 
3 | LUXendin645 (peptide) | 73.1 nM |  |  | 9.3 nM | 100 nM
4 | S39C-Exendin4(9-39) (peptide) | 34.8 nM |  |  |  | 
